Source: the supplement of paper PMC10065799, “High-throughput profiling of sequence recognition by tyrosine kinases and SH2 domains using bacterial peptide display” (eLife, 2023)

Assays:
[1] = molecular target: FGFR1 (UniProt P11362); test: phosphorylation enrichment, bacterial display (enrichment ratio); higher = better substrate or ligand; peptides without Tyr show the background
[2] = molecular target: MERTK (UniProt Q12866); test: as above
[3] = system: Fer (mouse); test: as above
[4] = molecular target: Jak2 (UniProt O60674); test: as above
Jak2, sequence (O60674 whole entry, looked up): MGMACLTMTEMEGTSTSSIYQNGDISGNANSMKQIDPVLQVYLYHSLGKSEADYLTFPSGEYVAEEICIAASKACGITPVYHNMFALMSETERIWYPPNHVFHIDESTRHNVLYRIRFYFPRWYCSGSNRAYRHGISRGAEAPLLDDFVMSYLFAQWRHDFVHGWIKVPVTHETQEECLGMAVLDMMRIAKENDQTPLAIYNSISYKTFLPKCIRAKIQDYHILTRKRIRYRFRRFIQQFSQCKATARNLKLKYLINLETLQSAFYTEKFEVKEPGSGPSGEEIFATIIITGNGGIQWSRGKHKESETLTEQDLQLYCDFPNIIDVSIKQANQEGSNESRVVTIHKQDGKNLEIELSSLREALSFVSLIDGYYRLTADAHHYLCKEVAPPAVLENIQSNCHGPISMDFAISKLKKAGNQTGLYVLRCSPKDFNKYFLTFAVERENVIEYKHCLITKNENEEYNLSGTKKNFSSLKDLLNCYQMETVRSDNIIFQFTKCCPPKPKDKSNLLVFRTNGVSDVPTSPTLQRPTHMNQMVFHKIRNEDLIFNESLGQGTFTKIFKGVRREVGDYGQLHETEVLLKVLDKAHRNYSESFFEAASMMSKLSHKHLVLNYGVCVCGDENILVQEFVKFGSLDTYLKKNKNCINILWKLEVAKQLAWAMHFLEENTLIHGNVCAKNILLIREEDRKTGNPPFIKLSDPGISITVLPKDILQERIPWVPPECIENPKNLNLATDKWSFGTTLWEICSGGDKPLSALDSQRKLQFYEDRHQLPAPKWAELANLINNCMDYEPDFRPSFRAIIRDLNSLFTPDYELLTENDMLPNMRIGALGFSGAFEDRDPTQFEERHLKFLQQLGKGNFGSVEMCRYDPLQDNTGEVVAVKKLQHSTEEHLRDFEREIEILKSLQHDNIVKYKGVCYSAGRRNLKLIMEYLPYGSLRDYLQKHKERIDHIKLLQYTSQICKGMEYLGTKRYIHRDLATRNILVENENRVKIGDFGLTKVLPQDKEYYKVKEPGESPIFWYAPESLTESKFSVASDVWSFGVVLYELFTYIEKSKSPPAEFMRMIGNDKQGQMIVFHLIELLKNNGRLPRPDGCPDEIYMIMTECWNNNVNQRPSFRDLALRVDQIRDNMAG

[5] = system: c-Src; test: as above
[6] = system: AncSZ; test: as above
[7] = molecular target: Hck (UniProt P08631); test: as above
Hck, sequence (P08631 whole entry, looked up): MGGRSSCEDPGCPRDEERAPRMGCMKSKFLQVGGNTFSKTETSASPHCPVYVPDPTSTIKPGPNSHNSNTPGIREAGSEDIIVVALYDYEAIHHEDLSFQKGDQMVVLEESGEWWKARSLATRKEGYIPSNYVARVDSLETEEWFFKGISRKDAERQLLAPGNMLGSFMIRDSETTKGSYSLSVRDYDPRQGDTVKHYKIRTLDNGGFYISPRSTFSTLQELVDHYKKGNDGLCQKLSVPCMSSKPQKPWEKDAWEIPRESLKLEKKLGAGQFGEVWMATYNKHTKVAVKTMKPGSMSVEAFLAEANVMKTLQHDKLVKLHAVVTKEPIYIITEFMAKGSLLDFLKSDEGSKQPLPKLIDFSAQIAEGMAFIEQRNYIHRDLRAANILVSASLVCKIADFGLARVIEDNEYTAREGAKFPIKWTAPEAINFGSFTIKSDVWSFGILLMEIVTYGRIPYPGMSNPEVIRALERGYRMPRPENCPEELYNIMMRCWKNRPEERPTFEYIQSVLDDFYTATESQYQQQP

[8] = molecular target: EPHB2 (UniProt P29323); test: as above
EPHB2, sequence (P29323 whole entry, looked up): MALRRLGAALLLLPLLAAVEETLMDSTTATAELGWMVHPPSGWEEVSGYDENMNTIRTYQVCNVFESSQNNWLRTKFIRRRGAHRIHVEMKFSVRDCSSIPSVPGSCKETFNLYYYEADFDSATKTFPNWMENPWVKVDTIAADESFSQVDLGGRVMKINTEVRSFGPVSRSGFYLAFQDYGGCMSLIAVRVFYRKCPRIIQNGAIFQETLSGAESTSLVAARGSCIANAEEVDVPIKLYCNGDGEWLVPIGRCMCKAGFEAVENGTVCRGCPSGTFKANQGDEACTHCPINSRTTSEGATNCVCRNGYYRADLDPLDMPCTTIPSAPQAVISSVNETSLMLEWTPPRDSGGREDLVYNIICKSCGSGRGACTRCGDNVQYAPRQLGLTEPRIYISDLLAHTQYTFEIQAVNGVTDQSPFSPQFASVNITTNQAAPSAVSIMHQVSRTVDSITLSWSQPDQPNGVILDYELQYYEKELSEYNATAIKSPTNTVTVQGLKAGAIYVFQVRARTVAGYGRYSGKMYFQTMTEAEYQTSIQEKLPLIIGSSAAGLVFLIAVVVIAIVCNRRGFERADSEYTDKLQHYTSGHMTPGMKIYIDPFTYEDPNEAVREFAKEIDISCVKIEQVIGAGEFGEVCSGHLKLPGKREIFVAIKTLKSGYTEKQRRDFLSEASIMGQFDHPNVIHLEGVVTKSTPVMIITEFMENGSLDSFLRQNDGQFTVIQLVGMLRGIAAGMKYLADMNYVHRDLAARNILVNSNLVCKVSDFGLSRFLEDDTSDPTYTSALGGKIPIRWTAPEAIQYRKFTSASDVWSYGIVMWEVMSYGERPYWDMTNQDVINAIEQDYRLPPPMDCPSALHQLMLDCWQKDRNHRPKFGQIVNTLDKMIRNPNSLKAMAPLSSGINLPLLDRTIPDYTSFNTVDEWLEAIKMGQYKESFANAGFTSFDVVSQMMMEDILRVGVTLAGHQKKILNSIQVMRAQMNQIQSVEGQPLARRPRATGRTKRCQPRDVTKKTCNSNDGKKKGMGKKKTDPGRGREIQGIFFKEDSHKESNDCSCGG

[9] = system: c-Abl (mouse); test: as above
[10] = molecular target: EPHB1 (UniProt P54762); test: as above
[11] = molecular target: Fyn (UniProt P06241); test: as above
Fyn, sequence (P06241 whole entry, looked up): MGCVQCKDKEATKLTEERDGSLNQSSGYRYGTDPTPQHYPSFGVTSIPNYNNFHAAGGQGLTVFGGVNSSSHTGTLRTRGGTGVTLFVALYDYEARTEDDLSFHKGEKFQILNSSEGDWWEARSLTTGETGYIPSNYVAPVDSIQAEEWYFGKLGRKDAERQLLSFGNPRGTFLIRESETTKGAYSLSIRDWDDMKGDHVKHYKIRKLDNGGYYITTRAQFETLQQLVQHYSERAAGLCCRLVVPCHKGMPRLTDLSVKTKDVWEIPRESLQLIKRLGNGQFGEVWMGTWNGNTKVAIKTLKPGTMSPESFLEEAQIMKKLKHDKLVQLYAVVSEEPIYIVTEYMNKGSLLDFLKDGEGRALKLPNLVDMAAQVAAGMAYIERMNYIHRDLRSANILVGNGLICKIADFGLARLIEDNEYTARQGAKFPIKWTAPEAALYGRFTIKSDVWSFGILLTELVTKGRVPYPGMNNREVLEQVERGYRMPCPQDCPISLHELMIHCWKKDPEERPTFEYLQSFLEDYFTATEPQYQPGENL

[12] = molecular target: Fes (UniProt P07332); test: as above
[13] = molecular target: FGFR3 (UniProt P22607); test: as above
FGFR3, sequence (P22607 whole entry, looked up): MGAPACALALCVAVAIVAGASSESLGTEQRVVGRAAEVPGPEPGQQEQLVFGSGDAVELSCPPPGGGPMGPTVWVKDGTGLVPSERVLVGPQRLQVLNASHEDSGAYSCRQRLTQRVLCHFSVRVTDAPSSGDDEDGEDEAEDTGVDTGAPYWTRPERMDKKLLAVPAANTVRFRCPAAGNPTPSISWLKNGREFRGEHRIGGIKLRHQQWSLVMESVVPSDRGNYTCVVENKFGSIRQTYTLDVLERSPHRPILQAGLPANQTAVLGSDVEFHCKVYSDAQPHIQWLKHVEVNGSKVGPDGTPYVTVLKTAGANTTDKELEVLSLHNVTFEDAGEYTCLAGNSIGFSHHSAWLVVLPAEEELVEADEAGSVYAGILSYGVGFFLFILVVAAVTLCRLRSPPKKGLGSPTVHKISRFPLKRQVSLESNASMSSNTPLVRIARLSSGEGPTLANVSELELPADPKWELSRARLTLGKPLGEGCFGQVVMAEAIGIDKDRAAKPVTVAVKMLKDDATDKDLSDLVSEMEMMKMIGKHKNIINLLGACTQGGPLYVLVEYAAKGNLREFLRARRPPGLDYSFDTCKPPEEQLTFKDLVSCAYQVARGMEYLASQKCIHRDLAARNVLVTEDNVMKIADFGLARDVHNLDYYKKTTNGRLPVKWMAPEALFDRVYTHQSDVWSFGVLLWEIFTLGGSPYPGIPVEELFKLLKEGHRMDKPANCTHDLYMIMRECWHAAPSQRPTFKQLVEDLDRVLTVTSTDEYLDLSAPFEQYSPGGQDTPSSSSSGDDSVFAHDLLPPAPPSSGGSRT

[14] = molecular target: c-Src SH2; test: SH2 binding enrichment of the phosphorylated peptide, bacterial display (enrichment ratio); higher = better substrate or ligand; peptides without Tyr show the background
[15] = molecular target: SHP2-C SH2; test: as above
[16] = molecular target: Grb2 SH2 (UniProt P62993); test: as above
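Wherever SH2 binding enrichment of the phosphorylated peptide, bacterial display is given: peptide library displayed on the E. coli surface as eCPX fusions, selected cells deep-sequenced, score is each peptide's frequency after selection divided by its frequency in the input.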
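Wherever phosphorylation enrichment, bacterial display is given: 11-residue human phosphosite peptides and single-mutation variants displayed on the E. coli surface, counted by deep sequencing, each peptide's frequency after selection divided by its frequency in the unselected input library; frequency after pTyr selection over input frequency; kinase dosed for 20-30% of maximal phosphorylation in three min.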

FGFR1, sequence (P11362 whole entry, looked up): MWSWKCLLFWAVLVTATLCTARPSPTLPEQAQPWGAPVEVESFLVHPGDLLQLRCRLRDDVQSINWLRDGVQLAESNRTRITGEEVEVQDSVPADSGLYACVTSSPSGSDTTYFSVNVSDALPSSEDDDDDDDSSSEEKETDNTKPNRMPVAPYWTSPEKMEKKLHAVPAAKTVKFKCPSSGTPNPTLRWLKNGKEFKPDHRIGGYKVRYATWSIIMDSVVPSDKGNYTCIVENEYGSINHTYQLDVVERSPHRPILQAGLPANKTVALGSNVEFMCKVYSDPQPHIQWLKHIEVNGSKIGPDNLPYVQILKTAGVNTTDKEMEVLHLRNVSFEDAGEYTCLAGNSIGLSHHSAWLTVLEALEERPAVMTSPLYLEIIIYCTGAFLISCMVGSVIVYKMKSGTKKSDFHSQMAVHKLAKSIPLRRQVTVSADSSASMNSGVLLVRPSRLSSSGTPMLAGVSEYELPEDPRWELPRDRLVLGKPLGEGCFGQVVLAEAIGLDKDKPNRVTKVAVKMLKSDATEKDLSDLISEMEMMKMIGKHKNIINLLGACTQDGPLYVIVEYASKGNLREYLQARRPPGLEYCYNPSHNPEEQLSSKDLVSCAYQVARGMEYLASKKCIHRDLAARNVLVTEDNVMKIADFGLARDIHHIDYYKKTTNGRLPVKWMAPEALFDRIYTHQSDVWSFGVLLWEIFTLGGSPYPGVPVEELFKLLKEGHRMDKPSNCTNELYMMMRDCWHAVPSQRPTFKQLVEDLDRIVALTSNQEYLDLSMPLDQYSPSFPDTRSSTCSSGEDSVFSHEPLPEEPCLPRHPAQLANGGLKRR

Sequence	phosphorylation enrichment [1]	phosphorylation enrichment [2]	phosphorylation enrichment [3]	phosphorylation enrichment [4]	phosphorylation enrichment [5]	phosphorylation enrichment [6]	phosphorylation enrichment [7]	phosphorylation enrichment [8]	phosphorylation enrichment [9]	phosphorylation enrichment [10]	phosphorylation enrichment [11]	phosphorylation enrichment [12]	phosphorylation enrichment [13]	SH2 binding enrichment [14]	SH2 binding enrichment [15]	SH2 binding enrichment [16]
RLSVDCGKKSK [TUBA4A_Y161_Y161C]	0.444	0.432	0.571	1.1	0.471	0.684	0.462	0.619	0.828	1.03	0.551	0.825	0.788	0.884	0.984	0.846
ADQLDYIKALN [HPRT1_Y81_L78Q]	0.458	0.441	0.451	0.861	0.408	1.06	0.526	0.474	0.708	0.784	0.492	1.22	0.608	0.491	0.559	0.914
CKPGFYNLKEK [LAMA1_Y490]	0.472	0.378	0.43	0.602	0.34	0.693	0.357	0.469	0.568	0.543	0.359	0.793	0.507	0.611	0.769	1.06
RLPSGYGLAFR [DLK1_Y262_YF]	0.422	0.396	0.49	0.837	0.478	0.734	0.509	0.526	0.889	0.416	0.549	0.885	0.595	0.521	0.852	0.823
RASGIYYVPKG [APBB1IP_Y340]	5.75	19.8	1.82	4.09	8.24	1.39	15.1	9.84	43.9	16.6	15.1	1.24	5.79	0.955	0.767	1.1
NSNSDYVDVLP [SH2D1B_Y127]	3.73	0.54	0.884	1.11	0.598	2.46	0.735	2.82	0.743	4.08	0.628	1.33	2.95	0.485	0.43	0.835
LTNDRYVATLT [IL6ST_Y396_L397V]	0.619	0.622	0.408	0.808	0.69	0.683	0.394	0.72	0.434	0.607	0.576	0.791	0.82	0.537	0.527	0.764
KELANYFKLHH [AK7_Y390_YF]	1.15	0.545	0.442	1.68	0.481	0.644	0.486	0.537	0.439	0.727	0.567	0.877	0.83	0.516	0.949	0.945
WHYTFYNELRV [ACTC1_Y93_H90Y]	0.686	0.869	0.651	1.27	0.619	1.39	0.67	0.678	0.979	1.31	0.461	1.42	1.03	0.572	0.779	0.992
KWLEQYTQAIE [LSP1_Y234_Q229K]	0.472	0.39	0.442	0.915	0.452	1.04	0.441	0.683	0.702	0.499	0.454	0.977	0.573	0.782	0.806	0.993
MALDRYVAICK [OR2B11_Y127]	0.508	0.411	0.499	0.665	0.454	0.762	0.51	0.575	0.863	0.581	0.464	0.838	0.604	1.35	0.97	0.856
HGVSSYDTIIS [LDLR_Y465_V468I]	0.944	0.797	0.712	1.08	1.03	1.06	0.738	0.819	1.63	0.827	0.669	1.08	0.785	10.6	0.546	0.546
SCTFTCLLGDR [ETHE1_Y38_Y38C]	0.488	0.465	0.458	0.84	0.387	0.916	0.414	0.536	0.737	0.45	0.458	1.03	0.669	0.945	0.98	1.01
KLIETYFSKNY [PLP1_Y50]	0.334	0.374	0.285	0.719	0.41	0.701	0.52	0.329	0.574	0.371	0.355	0.732	0.453	0.37	0.461	0.716
KLFFHYDPKLC [INSR_Y457_N458D]	0.423	0.382	0.47	0.961	0.361	1.01	0.327	0.516	0.948	0.643	0.342	1.25	0.67	0.542	0.709	0.702
IQKKYYRAILE [CHD7_Y1218]	0.424	0.341	0.384	0.563	0.324	0.649	0.432	0.586	0.468	0.396	0.407	0.761	0.485	0.637	0.636	0.976
IYLADYRIMEG [ALOX12B_Y318]	2.63	3.75	0.48	1.03	1.16	1.14	0.812	1.07	0.978	1.26	0.738	1.1	2.46	0.719	1.1	0.982

Sequence	phosphorylation enrichment [1]	phosphorylation enrichment [2]	phosphorylation enrichment [3]	phosphorylation enrichment [4]	phosphorylation enrichment [5]	phosphorylation enrichment [6]	phosphorylation enrichment [7]	phosphorylation enrichment [8]	phosphorylation enrichment [9]	phosphorylation enrichment [10]	phosphorylation enrichment [11]	phosphorylation enrichment [12]	phosphorylation enrichment [13]	SH2 binding enrichment [14]	SH2 binding enrichment [15]	SH2 binding enrichment [16]
APNEFYDGDHD [HDAC3_Y414]	0.624	0.602	0.59	1.32	0.574	1.3	0.769	0.605	1.04	0.613	0.535	1.29	1.18	0.57	0.632	0.727
KPLMPSMRYSR [SMARCE1_Y73_Y73S]	0.405	0.467	0.377	0.555	0.498	0.823	0.462	0.445	0.49	0.328	0.383	0.756	0.467	0.441	0.499	0.717
DGNIDYAEFAK [MCFD2_Y138_Y135N]	0.595	0.51	0.445	0.987	0.646	1.24	0.673	0.545	0.757	0.498	0.804	1.2	0.62	0.443	1.04	0.801
EVGRVYLFLQP [ITGA2B_Y360]	0.401	0.34	0.627	1.3	0.409	1.18	0.445	0.676	0.884	0.838	0.379	1.51	0.676	0.417	0.737	0.726
IGHGSYAKVLL [PRKCZ_Y263_R260H]	0.517	0.57	0.68	0.662	0.454	0.728	0.523	0.656	0.599	0.536	0.624	0.805	0.635	4.8	26.8	0.868
VVQGIYGYHHH [UFSP2_Y285_Y290H]	0.541	10.3	13.8	0.555	9.1	0.67	10.7	2.92	5.2	0.857	11.2	0.758	0.488	0.652	1.23	1.11
QELRRYLKSSV [MICA_Y194_G198S]	0.44	0.213	0.292	0.457	0.298	0.543	0.653	0.349	0.349	0.322	0.36	0.6	0.483	0.426	0.502	0.732
FLTQHYDAKPQ [ANG_Y38]	1.14	0.557	0.658	0.869	0.609	0.732	0.67	0.581	0.613	0.637	0.583	0.741	0.58	0.481	0.64	0.902
EADRKYEEVAC [TPM3_Y163_R168C]	0.598	0.545	0.61	1.04	0.53	1.17	0.681	0.609	0.862	0.622	0.574	1.41	0.777	21.8	0.925	1.12
DDSNPYINVKL [MTHFD1_Y52_L51P]	0.631	0.526	1.2	1.16	0.59	1.45	0.606	0.614	0.846	0.551	0.645	1.66	0.884	0.701	0.811	1.32
DRKRQYELLKL [KIF4B_Y684]	0.331	0.4	0.421	0.876	0.395	0.682	0.488	0.462	0.545	0.44	0.392	0.758	0.576	1.49	1.04	1.17
TVVGLYQKSSL [MYH7_Y609]	0.483	0.627	0.675	0.849	0.483	0.973	0.685	0.638	0.793	0.567	0.55	0.988	0.75	0.619	0.67	0.872
NVKGIYAVGDV [GSR_Y371]	0.521	1.31	0.572	0.66	3.73	0.714	3.55	0.564	1.44	0.619	4.37	0.865	0.574	0.533	0.738	0.741
IMAYFYMCDRA [CASD1_Y382]	1.09	0.494	0.614	1.46	0.487	1.11	0.401	0.641	1	0.803	0.421	1.45	1.23	0.87	1.02	1.14
IVAREYYSKAD [CAMK2B_Y107_E110K]	0.43	0.425	0.405	0.697	0.525	0.768	0.507	0.602	0.639	0.467	0.423	0.85	0.504	2.01	0.749	0.75
SMVVPYEPPEV [TP53_Y220_V216M]	0.45	0.465	0.617	1.3	0.526	1.11	0.407	0.625	0.852	0.592	0.462	1.33	0.81	0.769	0.659	0.892
